The text below walks through data of US20160177324A1, “NOVEL PROTEIN AND GENE RELATED TO FLAVONOID O-METHYLTRANSFERASE (FOMT) AND THEIR USES THEREFORE” (INSTITUTE OF BOTANY, THE CHINESE ACADEMY OF SCIENCES, priority 2013, published 2016).

Numbering of substitutions follows the chain as printed. Names may count otherwise.

The nature of data set [1]: Comparison of activities among recombinant polypeptides with site mutagenesis. The format is biochemical. To be noted: for Activity (%), portion of recombinant protein activity compared with PsFOMT: Cy3G5G as substrate. How it is done: The reaction system was according to Hugueney et al. with some modification (Hugueney, P., et al., A novel cation-dependent O-methyltransferase involved in anthocyanin methylation in grapevine. Plant Physiology, 2009. 150(4): p. 2057-2070.). Purified recombinant FOMT (2 μg) was assayed in a final volume of 200 μL containing 200 μM SAM, 1 mM MgCl2, 14 mM β-mercaptoethanol, 100 mM Tris, pH 7.5, and 20 μM flavonoid substrates. Incubation was performed at 35° C. and stopped with 200 μL methanol containing 2% formic acid. For enzyme kinetic studies, purified FOMT was incubated based on the above condition with the exception that a range of substrate concentrations from 5 to 200 μM were used for Km determination. Reaction product was analyzed by a Dionex HPLC system (Sunnyvale, Calif.), equipped with a P680 HPLC pump, an UltiMate 3000 autosampler, a TCC-100 thermostated column compartment and a Dionex PDA100 photodiode array detector. The analytical column was C18 column of ODS 80Ts QA (150 mm×4.6 mm, 5 μm i.d., Tosoh, Tokyo) protected with a C18 guard cartridge (Shanghai ANPEL Scientific Instrument, Shanghai). The following solvent and gradient were used: A, 10% aqueous formic acid; B, methanol; constant gradient from 10 to 36% B within 15 min and back to 10% B in 3 min; the flow rate was 0.8 mL min^−1; Column temperature was maintained at 35° C.; 20 μL of analyte was injected. Chromatograms were obtained at 525 nm for anthocyanins and 350 nm for other flavonoids, and photodiode array spectra were recorded from 200 to 800 nm. Km and Vmax values were calculated from Lineweaver-Burk plots.
To validate the key amino acid responsible for the activity, site-directed mutagenesis was carried out using the PCR method and Fast Mutagenesis System (TransGen), and primer sequences used are given in Table 1. Four constructs were built following the template sequence of PtFOMT, named as PtFOMT-G13E, PtFOMT-T85A, PtFOMT-R87L, and PtFOMT-T205R. The corresponding recombinant proteins were purified and the catalytic activities were examined. […] The other mutants have no significant improved activity compared with PtFOMT. The leucine at 87-position is a vital residue for the methyltransferase activity.

Data set [2] relates to Nicotiana tabacum cv.Nc89. Description: Flavonoid O-methyltransferase activity in transgenic tobacco. In kind it is in vivo. An excerpt: The full length genes were introduced with a BamHl site and an XhoI site on 5′- and 3′-end by PCR with primers SEQ No. 5 & 6. The double digested fragment of interest and eukaryotic expression vector pBI121 with BamHl site and an XhoI were ligated. Then the appropriate constructs were introduced into Agrobacterium strain EHA105 by electroporation.
Leaf of Nicotiana tabacum cv.Nc89 plant (Donated by Professor Silan Dai, Beijing Forestry University) was disinfected by 75% ethanol for 30 s, followed by 2% sodium hypochlorite for 3 minutes, and then washed with sterile water for three times. The leaf was cut into squares (25 mm^2) A single colony of Agrobacterium strain EHA105 with pBI121-FOMT construct was used to inoculate with 2 mL of YEB medium (per liter: 5 g of beef extract, 1 g of yeast extract, 5 g of sucrose, and 0.5 g of MgSO4.7H2O), supplemented with 50 mg mL^−1 kanamycin and 25 mg mL^−1 Rifampicin. The culture was incubated at 28° C. until OD600 0.6-0.8, and the bacteria were pelleted by centrifugation at 5000 rpm for 5 minutes. The cells were washed by MS liquid medium and resuspended pellets with appropriate volume of MS liquid. The tobacco leaf squares were dipped into the bacteria solution for 8 minutes and cultivated on MS media containing 2.0 mg L^−1 6-benzylaminopurine (6-BA), 0.2 mg L^−1 1-naphthylacetic acid (NAA), and 500 mg L^−1 ceflomine. The explants were transferred to fresh selected medium after two weeks. When the regenerating plantlets grow to 2 cm, move them to MS media containing 0.2 mg L^−1 NAA to induce root. After four weeks, the transgenic tobacco plantlets were transferred to pots and kept in the greenhouse till flowering. The positive transgenic lines were selected by PCR, and transgenic plantlets with empty plasmid were used as control. The anthocyanins in transgenic petals were detected with an HPLC system.
Appropriate amount of sample (petal, fruits) was powdered with mortars and pestles and extracted for the first time with 2 mL 2% (v/v) formic acid methanol solution shaken in a QL-861 vortex (Kylinbell Lab Instruments, Jiangsu, China), sonicated in KQ-500DE ultrasonic cleaner (Ultrasonic instruments, Jiangsu Kunshan, China) at 20° C. for 20 min, centrifuged in SIGMA 3K30 (SIGMA centrifugers, Germany) (12000 rpm, 10 min), and the supernatant was collected. Additional 2 mL and 1 mL extraction solution was supplemented to the residue, and repeated aforesaid operation for the second and third times. All extract was pooled and filtrated through 0.22 μm reinforced nylon membrane filters (Shanghai ANPEL, Shanghai, China) before the HPLC-DAD and HPLC-ESI-MS^n analyses. Three replicates were performed for each sample. […]
HPLC-ESI-MS^n analysis was carried with an Agilent-1100 HPLC system equipped with a UV detector coupled to a LC-MSD Trap VL ion-trap mass spectrometer via an ESI source (Agilent Technologies, Palo Alto, Calif.). […] The MS conditions were listed as follow: negative-ion (NI) mode; capillary voltage of 3.5 kV; a nebulization pressure of 241.3 kPa; and a gas (N2) temperature of 350° C. with flow rate of 6.0 L min^−1 Capillary offset voltage was 77.2 V. MS spectra were recorded over the range from m/z 50-1000.

B1: PtFOMT: similar O-methyltransferase cloned from Paeonia tenuifolia, SEQ ID NO: 4; differs from PsFOMT at positions 13, 85, 87, 205 (protein, listed as Paeonia tenuifolia)
chain: MAESDRKGILKSGALLKYILETSVYPREHEQLKQLRQATVDKYKYWSVMNVPADEGQFLSMLLKIMNAKKTIEVGVFTGYSLLTTARALPTDAKITAIDPDGEAYETGLPFIKKAGVEHKINYIQADAMSVLDDLVTNGKEEGSFDFAFVDADKENYAKYHEPLMKLVKIGGIIGYDNTLWFGSVALSDGDEMKEFQEKGRRIFTEFNTFLAADPRIELAHISIGDGLALCRRLY
As for B1, the “Activity (%), portion of recombinant protein activity compared with PsFOMT” value (“Activity (%), portion” for short) in data set [1] (Incubation 5 min) is recorded as 0%; in data set [1] (Incubation 30 min) it was 4.2%. For the same molecule, the “flower color compared with control lines” value in data set [2] (transgenic tobacco flowers) is recorded as “no obvious difference”. Moreover, the “methyltransferase function in tobacco petal (new anthocyanin Pn3R detected)” value in data set [2] (transgenic tobacco petals vs empty vector) is recorded as “performed as a methyltransferase”.

B2: PtFOMT-T85A: site-directed mutant of PtFOMT, T85A (protein)
chain: B1 chain with T85A
In the case of B2, the “Activity (%), portion” value in data set [1] (Incubation 5 min) is reported as 0%; in data set [1] (Incubation 30 min), 14.0%.

B3: PtFOMT-G13E: site-directed mutant of PtFOMT, G13E (protein)
chain: B1 chain with G13E
Consider B3, for which the entries for the “Activity (%), portion” value in data set [1] (Incubation 5 min) and in data set [1] (Incubation 30 min) were 0% and 18.5%, respectively.

B4: PtFOMT-R87L: site-directed mutant of PtFOMT, R87L (protein)
chain: B1 chain with R87L
Turning to B4, the entries for the “Activity (%), portion” value in data set [1] (Incubation 5 min) and in data set [1] (Incubation 30 min) were 100.7% and 104.5%, respectively. Moreover, the “catalytic activity of site-directed mutants” value in data set [1] (recombinant purified proteins) is “regain the activity equal to PsFOMT”.

B5: PtFOMT-T205R: site-directed mutant of PtFOMT, T205R (protein)
chain: B1 chain with T205R
In the case of B5, the “Activity (%), portion” value is given as 0% in data set [1] (Incubation 5 min) and 38.1% in data set [1] (Incubation 30 min).
